± gives the standard deviation.
Assay: protein stability index of a GFP-peptide fusion (GPS, HEK-293T) (PSI 1-6); higher = more stable
[1] = treatment: DMSO, c terminus: a fixed tail appended
[2] = treatment: MLN4924 1 uM, 8 h, c terminus: a fixed tail appended
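Note: 24-mer peptide tiles fused after GFP, lentivirally expressed, FACS-sorted into six equal bins by GFP/DsRed ratio, decoded by Illumina sequencing, PSI is the read-weighted mean bin number.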

Sequence TGASFQKAQQEFAAGVFSNPAVRT [SCAMP3] has a protein stability index [1] of 3.73 ± 0.16 and a protein stability index [2] of 3.79 ± 0.25.
TGGPDACLRCWDQRTIMKPLEYQF [TLE6] gave a protein stability index [1] of 2.29 ± 0.17 and a protein stability index [2] of 2.74 ± 0.27.
For TGGVTALCWDPVQRVLFSGSSDHS [WDFY2], the protein stability index [1] was 2.73 ± 0.21 and the protein stability index [2] was 2.78 ± 0.59.
For THVLSKEVQHLREEKSKQFLDLME [LRRC45], the protein stability index [1] was 3.66 ± 0.26 and the protein stability index [2] was 3.81 ± 0.26.
Sequence TIDNDIVSMEIFFKAWLHNSGTDQ [M1AP] has a protein stability index [1] of 2.5 ± 0.23 and a protein stability index [2] of 2.36 ± 0.084.
TINNFSFCREEMGEVLKSSTFSSG [SPOPL] showed a protein stability index [1] of 2.33 ± 0.21 and a protein stability index [2] of 2.53 ± 0.28.
Work on TKVQKKSLLLKKPLRVDLILENTS [NOP53] yielded a protein stability index [1] of 2.71 ± 0.19 and a protein stability index [2] of 2.84 ± 0.39.
In the case of TLCKADLEAQVESLKEELMCLKKN [KRT36], the protein stability index [1] is reported as 3.51 ± 0.4 and the protein stability index [2] is reported as 3.83 ± 0.15.
Work on TLELCHDELFADLFNSNHKAGGAG [CEBPD] yielded a protein stability index [2] of 4.24 ± 1.
Work on TLFQTESPQSGSILTEETEVKGTL [PBXIP1] yielded a protein stability index [1] of 4.92 ± 0.17 and a protein stability index [2] of 4.7 ± 0.25.
TLTVFPPEETTPSPSRESPLSAP [KLHL13] showed a protein stability index (treatment: DMSO, c terminus: native) of 5.16 ± 0.15 and a protein stability index (treatment: MLN4924 1 uM, 8 h, c terminus: native) of 5.18 ± 0.08.
TNDGNHPSCQETRDYAPPSRGYAY [RBMY1A1] showed a protein stability index [1] of 4.33 ± 0.12 and a protein stability index [2] of 4.36 ± 0.11.
Sequence TNPDLYPVRRIDGLTDVSQIITVT [IQUB] has a protein stability index [1] of 2.86 ± 0.26 and a protein stability index [2] of 3.06 ± 0.26.
Work on TPCGPAQACMGGRCLHMDQLQDFN [ADAMTS4] yielded a protein stability index [1] of 2.63 ± 0.25 and a protein stability index [2] of 2.75 ± 0.17.
For TPKAAWIREEGRCSSSDDDTDVDM [PBXIP1], the protein stability index [1] was 5.4 ± 0.32 and the protein stability index [2] was 5.19 ± 0.38.
Work on TPLLMAARYGHLDMVEFLLEQCSA [FEM1C] yielded a protein stability index [1] of 2.28 ± 0.41 and a protein stability index [2] of 2.26 ± 0.24.
For TPLLNGSSQDRMFETMAIEIEQLL [GOSR1], the protein stability index [1] was 3.06 ± 0.27 and the protein stability index [2] was 3.28 ± 0.23.
In the case of TPPTTTAEIATASASASTTTTVTA [SNAP91], the protein stability index [1] is reported as 5.39 ± 0.15 and the protein stability index [2] is reported as 5.3 ± 0.13.
For TPQPTALTFAKSSWARQESLQERK [AUP1], the protein stability index [1] was 4.43 ± 0.14 and the protein stability index [2] was 4.48 ± 0.19.
For TQSDEENGRACEMNGEECAEDLRM [IKZF1], the protein stability index [1] was 5.66 ± 0.28 and the protein stability index [2] was 5.66 ± 0.19.
Work on TRKLSPGKKRCKDIKRLLVNFMYL [SMG5] yielded a protein stability index [1] of 2.53 ± 0.45 and a protein stability index [2] of 2.62 ± 0.48.
TRQLSEENANLQEYVEKETQEKKR [MTUS2] showed a protein stability index [1] of 5.33 ± 0.14 and a protein stability index [2] of 5.56 ± 0.12.
Sequence TSGMGFHAPKIGSNGVEMAAKFPS [SDE2] has a protein stability index [1] of 3.53 ± 0.28 and a protein stability index [2] of 3.5 ± 0.27.
With TSHSLPESSVPSTVGCSSQHTPDQ [PLEKHN1] the protein stability index [1] was 5.36 ± 0.17 and the protein stability index [2] was 5.28 ± 0.16.
In the case of TSNGWGVTDCKHTEDVGVVCSDKR [LOXL2], the protein stability index [1] is reported as 4.57 ± 0.092 and the protein stability index [2] is reported as 4.46 ± 0.41.
With TSTVNSAREELMESRMRIESLSSQ [LMNB1] the protein stability index [1] was 4.54 ± 0.15 and the protein stability index [2] was 4.51 ± 0.18.
Work on TSYYIRYRGAVYADSGNFKRCINL [FEM1C] yielded a protein stability index [1] of 2.48 ± 0.51 and a protein stability index [2] of 2.33 ± 0.57.
In the case of TTEKQRLVKKLQDSVLERWVNDPQ [GOLPH3L], the protein stability index [1] is reported as 3.71 ± 0.25 and the protein stability index [2] is reported as 4.05 ± 0.076.
Sequence TVERPFYDLWASDNPLDRPLVGQD [NOP53] has a protein stability index [1] of 4.09 ± 0.37 and a protein stability index [2] of 4.2 ± 0.15.
In the case of TWVPMFLSTLLAPYQALRLWARGT [SOAT2], the protein stability index [1] is reported as 2.81 ± 0.48 and the protein stability index [2] is reported as 2.72 ± 0.64.
TWYLKTIDICHDHFGWYLGWGDCV [DHCR7] gave a protein stability index [1] of 3.01 ± 0.34 and a protein stability index [2] of 3.1 ± 0.53.
Sequence TYLSKVDPDGKKIKQIQQLFEEIL [FBXO33] has a protein stability index [1] of 2.25 ± 0.24 and a protein stability index [2] of 1.84 ± 0.26.
TYRSLLESEDCKLPCNPCATTNAS [KRT34] gave a protein stability index [1] of 3.9 ± 0.25 and a protein stability index [2] of 4.09 ± 0.2.
Work on TYRSLLESEDCKLPSNPCATTNAC [KRT33B] yielded a protein stability index [1] of 3.99 ± 0.26 and a protein stability index [2] of 4.04 ± 0.072.
Work on VCRTEGTPHMLLDLSDLLQVDSLR [BRF1] yielded a protein stability index [1] of 2.31 ± 0.23 and a protein stability index [2] of 2.29 ± 0.3.
With VDENDSHEGEDQFLSLEASTETLV [DLC1] the protein stability index [1] was 5.66 ± 0.16 and the protein stability index [2] was 5.56 ± 0.2.
VDLFKQLCEKEPLGNVLFSPICLS [SERPINB5] gave a protein stability index [1] of 1.98 ± 0.18 and a protein stability index [2] of 2.08 ± 0.41.
With VDRTHALMKKIGQCPMRVQKEVAG [CRYL1] the protein stability index [1] was 3.45 ± 0.36 and the protein stability index [2] was 3.65 ± 0.35.
Sequence VDWRRVSRLQEDPEGTENPLGVDE [SLA] has a protein stability index [1] of 4.46 ± 0.36.
In the case of VERILARGENLEHLRNKTEDLEAT [VAMP8], the protein stability index [1] is reported as 5.33 ± 0.2 and the protein stability index [2] is reported as 5.37 ± 0.14.
For VESSLDKVVLSDAYAHPQQKVAVY [TRADD], the protein stability index [1] was 2.88 ± 0.29 and the protein stability index [2] was 3.26 ± 0.12.
VFGVPLTVNVQRTGQPLPQSIQQA [DLC1] gave a protein stability index [1] of 2.79 ± 0.2 and a protein stability index [2] of 3 ± 0.43.
Sequence VFNAARDGKLRLLTKLLASKSKEE [FEM1C] has a protein stability index [1] of 2.48 ± 0.21 and a protein stability index [2] of 2.75 ± 0.3.
VFVCRVSAVLFYVNMYVSIVFFGL [P2RY14] gave a protein stability index [1] of 3.36 ± 0.33 and a protein stability index [2] of 3.35 ± 0.54.
VFVLIDEVESLTAARNACRAGTEP [TRIP13] gave a protein stability index [1] of 2.35 ± 0.2 and a protein stability index [2] of 2.63 ± 0.36.

Source: the supplement of paper PMC10567573
